From US8273855 (JIANGSU NOVAVAC BIO TEC, dated 2012)

Experiments:
[1] = target: T1, Notch2 on OLN-93 cells (rat, UniProt Q9QW30 26-2471); assay: OLN-93 cell adhesion to F3-Fc substrate with antibody blockade
T1 construct: whole, on cells; also called OLN cells
Procedure: This was carried out as previously described (Xiao et al, 1996). Briefly, 35 mm tissue culture petri dishes (Becton Dickinson) were coated with methanol solubilized nitrocellulose (Lagenaur and Lemon, 1987) and air-dried under a sterile hood.

[2] = target: Notch on primary rat oligodendrocytes and oligodendrocyte precursor cells (rat, UniProt Q07008 19-2531); assay: cell-based or functional assay
Notch on primary rat oligodendrocytes and oligodendrocyte precursor cells, sequence (Q07008 19-2531): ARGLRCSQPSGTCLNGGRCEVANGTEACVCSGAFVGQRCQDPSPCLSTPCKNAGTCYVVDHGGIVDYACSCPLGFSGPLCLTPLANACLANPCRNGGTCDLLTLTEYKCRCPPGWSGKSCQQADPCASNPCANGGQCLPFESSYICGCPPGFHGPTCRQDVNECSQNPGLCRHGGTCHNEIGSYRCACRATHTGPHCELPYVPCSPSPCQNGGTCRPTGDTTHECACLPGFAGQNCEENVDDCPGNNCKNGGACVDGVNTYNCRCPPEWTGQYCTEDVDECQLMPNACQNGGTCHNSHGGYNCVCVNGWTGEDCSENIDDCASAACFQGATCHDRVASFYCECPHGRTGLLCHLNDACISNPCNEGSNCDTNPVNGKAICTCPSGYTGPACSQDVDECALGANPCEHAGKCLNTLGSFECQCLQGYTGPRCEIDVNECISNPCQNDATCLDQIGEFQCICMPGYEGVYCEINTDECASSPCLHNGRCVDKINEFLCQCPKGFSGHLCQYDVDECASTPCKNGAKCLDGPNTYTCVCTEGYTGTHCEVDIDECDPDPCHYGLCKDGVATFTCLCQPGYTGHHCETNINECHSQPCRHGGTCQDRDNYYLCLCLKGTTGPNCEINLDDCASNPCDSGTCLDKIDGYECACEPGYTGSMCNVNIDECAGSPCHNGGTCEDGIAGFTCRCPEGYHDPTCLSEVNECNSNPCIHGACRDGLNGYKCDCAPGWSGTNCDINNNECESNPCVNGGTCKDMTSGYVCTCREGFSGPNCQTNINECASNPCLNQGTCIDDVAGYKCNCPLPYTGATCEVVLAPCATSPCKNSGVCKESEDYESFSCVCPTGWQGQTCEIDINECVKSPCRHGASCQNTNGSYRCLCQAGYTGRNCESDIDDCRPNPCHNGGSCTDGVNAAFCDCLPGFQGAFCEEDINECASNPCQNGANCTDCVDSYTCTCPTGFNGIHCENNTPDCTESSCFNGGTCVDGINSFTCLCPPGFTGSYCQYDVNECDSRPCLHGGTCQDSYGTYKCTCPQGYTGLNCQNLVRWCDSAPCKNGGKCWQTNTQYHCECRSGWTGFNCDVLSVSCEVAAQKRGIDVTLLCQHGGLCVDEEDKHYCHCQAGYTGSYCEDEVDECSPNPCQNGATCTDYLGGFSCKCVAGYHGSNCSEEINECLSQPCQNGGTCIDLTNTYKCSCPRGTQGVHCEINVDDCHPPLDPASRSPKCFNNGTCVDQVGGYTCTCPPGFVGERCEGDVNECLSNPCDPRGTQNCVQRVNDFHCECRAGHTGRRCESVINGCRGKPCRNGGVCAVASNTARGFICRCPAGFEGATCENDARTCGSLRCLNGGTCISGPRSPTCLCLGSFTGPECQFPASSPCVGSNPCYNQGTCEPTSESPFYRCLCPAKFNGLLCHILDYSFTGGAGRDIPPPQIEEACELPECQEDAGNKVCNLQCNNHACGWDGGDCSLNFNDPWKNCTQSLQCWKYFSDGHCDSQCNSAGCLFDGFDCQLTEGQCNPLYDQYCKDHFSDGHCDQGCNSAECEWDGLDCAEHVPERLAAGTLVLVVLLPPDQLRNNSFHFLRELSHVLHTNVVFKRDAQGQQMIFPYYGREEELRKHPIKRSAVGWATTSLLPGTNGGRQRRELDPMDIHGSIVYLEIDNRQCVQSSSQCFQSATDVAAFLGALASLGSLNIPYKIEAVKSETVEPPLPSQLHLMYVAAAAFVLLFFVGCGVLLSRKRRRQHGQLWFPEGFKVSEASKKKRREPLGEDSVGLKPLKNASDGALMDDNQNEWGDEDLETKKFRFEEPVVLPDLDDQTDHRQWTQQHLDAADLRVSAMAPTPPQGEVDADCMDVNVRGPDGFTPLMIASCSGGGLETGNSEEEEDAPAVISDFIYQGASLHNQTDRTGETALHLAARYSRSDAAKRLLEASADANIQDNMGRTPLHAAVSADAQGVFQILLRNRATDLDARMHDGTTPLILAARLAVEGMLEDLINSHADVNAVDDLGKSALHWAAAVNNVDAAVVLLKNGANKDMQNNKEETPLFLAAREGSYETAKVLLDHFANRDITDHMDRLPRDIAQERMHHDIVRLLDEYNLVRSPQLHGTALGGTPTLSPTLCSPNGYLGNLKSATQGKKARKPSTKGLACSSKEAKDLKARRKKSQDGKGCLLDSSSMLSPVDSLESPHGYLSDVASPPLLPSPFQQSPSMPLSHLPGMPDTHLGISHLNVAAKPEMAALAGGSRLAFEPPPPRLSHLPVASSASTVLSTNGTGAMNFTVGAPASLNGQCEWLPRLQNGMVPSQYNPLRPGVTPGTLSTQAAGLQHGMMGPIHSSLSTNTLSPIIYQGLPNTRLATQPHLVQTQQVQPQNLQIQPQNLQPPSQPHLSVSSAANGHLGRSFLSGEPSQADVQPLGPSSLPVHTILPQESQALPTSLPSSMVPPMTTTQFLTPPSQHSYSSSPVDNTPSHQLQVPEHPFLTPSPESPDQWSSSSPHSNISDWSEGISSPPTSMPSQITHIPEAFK

[3] = target: myc-tagged full-length mouse Notch1 on transfected OLN cells (mouse, UniProt Q01705 19-2531); assay: cell-based or functional assay
myc-tagged full-length mouse Notch1 on transfected OLN cells, sequence (Q01705 19-2531): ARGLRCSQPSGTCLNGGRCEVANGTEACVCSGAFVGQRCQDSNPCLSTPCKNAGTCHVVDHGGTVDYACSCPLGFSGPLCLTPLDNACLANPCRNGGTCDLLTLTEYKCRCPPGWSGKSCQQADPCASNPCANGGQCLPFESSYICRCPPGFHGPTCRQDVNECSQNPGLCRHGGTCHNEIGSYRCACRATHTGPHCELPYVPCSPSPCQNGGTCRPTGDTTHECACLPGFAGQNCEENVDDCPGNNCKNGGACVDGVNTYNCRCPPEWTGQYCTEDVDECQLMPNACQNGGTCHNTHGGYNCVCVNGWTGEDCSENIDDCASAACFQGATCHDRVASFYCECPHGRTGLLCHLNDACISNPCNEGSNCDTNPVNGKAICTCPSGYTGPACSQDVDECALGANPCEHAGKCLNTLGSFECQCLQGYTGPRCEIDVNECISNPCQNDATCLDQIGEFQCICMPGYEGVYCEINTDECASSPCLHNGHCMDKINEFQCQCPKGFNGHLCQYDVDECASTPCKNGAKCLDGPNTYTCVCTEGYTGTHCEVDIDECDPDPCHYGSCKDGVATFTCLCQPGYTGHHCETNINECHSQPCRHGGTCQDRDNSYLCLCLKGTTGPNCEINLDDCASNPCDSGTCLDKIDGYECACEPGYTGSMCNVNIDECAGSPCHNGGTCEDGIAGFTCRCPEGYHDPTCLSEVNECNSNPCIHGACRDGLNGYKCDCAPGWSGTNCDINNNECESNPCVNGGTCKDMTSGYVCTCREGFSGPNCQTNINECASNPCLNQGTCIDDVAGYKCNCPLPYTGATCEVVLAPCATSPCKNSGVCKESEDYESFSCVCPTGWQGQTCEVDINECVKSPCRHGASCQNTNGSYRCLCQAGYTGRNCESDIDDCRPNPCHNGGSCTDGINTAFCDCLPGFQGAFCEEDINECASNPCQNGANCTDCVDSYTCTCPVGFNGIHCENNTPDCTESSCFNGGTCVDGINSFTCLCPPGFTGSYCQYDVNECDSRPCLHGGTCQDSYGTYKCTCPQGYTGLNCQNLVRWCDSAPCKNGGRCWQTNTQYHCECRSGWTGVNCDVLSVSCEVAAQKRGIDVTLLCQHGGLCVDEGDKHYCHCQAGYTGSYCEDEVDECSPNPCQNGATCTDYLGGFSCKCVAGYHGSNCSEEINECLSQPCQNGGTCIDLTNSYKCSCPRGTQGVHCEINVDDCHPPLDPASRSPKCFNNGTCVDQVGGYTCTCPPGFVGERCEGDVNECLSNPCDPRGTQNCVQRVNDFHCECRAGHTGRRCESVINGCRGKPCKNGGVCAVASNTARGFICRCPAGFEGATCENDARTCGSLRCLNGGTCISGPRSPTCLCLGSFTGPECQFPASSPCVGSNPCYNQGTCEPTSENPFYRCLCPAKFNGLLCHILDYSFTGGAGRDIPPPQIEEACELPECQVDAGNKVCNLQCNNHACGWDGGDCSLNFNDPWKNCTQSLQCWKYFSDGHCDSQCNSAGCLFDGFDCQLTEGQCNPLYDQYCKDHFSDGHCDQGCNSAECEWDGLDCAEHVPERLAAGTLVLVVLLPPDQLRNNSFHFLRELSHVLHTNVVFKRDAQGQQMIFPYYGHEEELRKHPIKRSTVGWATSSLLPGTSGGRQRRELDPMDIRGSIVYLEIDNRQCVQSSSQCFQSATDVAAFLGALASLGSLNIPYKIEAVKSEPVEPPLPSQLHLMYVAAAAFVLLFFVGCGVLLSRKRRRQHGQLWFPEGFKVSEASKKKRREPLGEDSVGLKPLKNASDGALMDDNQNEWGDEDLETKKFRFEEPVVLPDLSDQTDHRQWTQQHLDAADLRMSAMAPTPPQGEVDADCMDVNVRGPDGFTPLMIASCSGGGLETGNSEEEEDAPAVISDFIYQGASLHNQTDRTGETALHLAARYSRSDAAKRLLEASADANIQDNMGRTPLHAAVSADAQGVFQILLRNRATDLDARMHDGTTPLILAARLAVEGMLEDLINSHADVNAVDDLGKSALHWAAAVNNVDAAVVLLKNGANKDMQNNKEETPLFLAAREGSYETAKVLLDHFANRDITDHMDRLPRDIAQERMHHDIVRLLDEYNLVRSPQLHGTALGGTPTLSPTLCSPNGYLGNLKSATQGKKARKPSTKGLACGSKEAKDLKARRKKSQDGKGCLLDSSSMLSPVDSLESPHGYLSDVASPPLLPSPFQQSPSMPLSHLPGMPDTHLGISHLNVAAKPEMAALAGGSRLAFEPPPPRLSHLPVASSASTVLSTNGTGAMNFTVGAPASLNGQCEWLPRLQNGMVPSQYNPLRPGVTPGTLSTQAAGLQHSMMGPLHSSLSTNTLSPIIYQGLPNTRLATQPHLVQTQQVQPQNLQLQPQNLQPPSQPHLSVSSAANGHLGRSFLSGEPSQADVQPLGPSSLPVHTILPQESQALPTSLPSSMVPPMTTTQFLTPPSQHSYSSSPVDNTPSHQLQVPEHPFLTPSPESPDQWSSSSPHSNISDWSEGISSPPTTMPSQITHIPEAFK

[4] = target: T2, F3 on F3-transfected CHO cells (UniProt P12960 21-1001); assay: cell adhesion assay, F3-CHO cells on coated substrate
T2 construct: whole, on cells; also called F3-CHO; F3-expressing CHO cells
T2 sequence (looked up): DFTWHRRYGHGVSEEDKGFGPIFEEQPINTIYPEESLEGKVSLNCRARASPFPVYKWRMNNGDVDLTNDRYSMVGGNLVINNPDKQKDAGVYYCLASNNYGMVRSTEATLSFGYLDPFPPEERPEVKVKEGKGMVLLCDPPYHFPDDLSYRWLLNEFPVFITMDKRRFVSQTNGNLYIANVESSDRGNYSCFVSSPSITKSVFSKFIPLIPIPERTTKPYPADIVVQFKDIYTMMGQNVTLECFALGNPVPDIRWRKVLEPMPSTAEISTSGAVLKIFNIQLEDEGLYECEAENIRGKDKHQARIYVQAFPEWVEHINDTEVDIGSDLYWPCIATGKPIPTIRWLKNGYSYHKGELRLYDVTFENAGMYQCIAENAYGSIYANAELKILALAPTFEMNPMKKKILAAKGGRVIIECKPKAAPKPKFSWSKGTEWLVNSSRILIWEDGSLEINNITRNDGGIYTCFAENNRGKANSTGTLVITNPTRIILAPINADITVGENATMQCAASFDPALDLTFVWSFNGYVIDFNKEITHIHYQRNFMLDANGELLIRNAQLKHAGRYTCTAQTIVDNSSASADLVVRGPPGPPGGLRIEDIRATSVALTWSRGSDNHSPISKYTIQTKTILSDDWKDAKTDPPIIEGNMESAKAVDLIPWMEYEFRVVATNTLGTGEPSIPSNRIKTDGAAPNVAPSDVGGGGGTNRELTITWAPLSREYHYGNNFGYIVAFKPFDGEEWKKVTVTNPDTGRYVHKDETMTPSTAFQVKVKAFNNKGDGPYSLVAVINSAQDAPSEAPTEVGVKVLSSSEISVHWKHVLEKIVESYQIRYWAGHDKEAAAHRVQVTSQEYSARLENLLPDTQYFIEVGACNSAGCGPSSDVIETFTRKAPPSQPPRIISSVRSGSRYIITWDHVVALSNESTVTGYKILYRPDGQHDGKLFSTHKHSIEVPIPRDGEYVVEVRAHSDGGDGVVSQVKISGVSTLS

[5] = target: T3, Caspr (native, adult rat brain membrane extracts) (rat, UniProt P97846 21-1381); assay: co-immunoprecipitation from adult rat brain membrane extracts, Western blot
T3 construct: also called Paranodin; contactin-associated protein
T3 sequence (looked up): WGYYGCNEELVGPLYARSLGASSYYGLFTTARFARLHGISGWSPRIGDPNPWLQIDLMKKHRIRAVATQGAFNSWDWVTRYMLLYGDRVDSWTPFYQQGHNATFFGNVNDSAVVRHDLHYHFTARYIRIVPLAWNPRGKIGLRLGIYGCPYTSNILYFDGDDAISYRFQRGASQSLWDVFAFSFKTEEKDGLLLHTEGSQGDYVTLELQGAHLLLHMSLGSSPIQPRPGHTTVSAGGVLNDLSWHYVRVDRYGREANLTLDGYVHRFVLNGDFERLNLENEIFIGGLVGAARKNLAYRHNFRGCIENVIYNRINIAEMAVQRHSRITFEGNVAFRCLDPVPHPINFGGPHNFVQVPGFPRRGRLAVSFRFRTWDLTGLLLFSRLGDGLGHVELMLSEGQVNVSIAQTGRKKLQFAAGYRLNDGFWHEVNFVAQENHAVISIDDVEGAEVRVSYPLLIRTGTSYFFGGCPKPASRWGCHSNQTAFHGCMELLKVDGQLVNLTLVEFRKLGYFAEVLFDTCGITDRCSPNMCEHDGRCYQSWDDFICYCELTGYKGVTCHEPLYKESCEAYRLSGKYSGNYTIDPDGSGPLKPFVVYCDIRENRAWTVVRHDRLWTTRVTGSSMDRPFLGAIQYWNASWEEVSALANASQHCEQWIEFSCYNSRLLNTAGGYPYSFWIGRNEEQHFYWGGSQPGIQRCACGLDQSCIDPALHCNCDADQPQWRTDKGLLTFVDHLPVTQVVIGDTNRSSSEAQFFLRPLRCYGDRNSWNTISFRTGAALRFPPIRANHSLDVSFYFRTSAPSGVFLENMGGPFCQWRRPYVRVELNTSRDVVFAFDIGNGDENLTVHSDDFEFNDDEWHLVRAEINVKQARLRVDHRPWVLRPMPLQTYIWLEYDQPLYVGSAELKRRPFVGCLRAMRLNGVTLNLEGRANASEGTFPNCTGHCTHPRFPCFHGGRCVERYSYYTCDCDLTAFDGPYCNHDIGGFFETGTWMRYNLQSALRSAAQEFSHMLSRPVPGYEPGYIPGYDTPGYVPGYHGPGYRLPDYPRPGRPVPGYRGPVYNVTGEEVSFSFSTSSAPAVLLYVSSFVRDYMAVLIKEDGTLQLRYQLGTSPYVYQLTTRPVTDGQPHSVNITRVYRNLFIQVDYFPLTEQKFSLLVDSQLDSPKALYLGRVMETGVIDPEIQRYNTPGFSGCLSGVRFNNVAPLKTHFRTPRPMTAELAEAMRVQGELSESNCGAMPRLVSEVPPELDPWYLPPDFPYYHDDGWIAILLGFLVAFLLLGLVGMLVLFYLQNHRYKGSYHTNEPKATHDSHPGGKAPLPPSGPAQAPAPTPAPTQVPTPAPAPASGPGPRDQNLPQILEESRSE

B1: F3-Fc (Fc fusion, mouse, UniProt P12960 21-1001, looked up)
chain: DFTWHRRYGHGVSEEDKGFGPIFEEQPINTIYPEESLEGKVSLNCRARASPFPVYKWRMNNGDVDLTNDRYSMVGGNLVINNPDKQKDAGVYYCLASNNYGMVRSTEATLSFGYLDPFPPEERPEVKVKEGKGMVLLCDPPYHFPDDLSYRWLLNEFPVFITMDKRRFVSQTNGNLYIANVESSDRGNYSCFVSSPSITKSVFSKFIPLIPIPERTTKPYPADIVVQFKDIYTMMGQNVTLECFALGNPVPDIRWRKVLEPMPSTAEISTSGAVLKIFNIQLEDEGLYECEAENIRGKDKHQARIYVQAFPEWVEHINDTEVDIGSDLYWPCIATGKPIPTIRWLKNGYSYHKGELRLYDVTFENAGMYQCIAENAYGSIYANAELKILALAPTFEMNPMKKKILAAKGGRVIIECKPKAAPKPKFSWSKGTEWLVNSSRILIWEDGSLEINNITRNDGGIYTCFAENNRGKANSTGTLVITNPTRIILAPINADITVGENATMQCAASFDPALDLTFVWSFNGYVIDFNKEITHIHYQRNFMLDANGELLIRNAQLKHAGRYTCTAQTIVDNSSASADLVVRGPPGPPGGLRIEDIRATSVALTWSRGSDNHSPISKYTIQTKTILSDDWKDAKTDPPIIEGNMESAKAVDLIPWMEYEFRVVATNTLGTGEPSIPSNRIKTDGAAPNVAPSDVGGGGGTNRELTITWAPLSREYHYGNNFGYIVAFKPFDGEEWKKVTVTNPDTGRYVHKDETMTPSTAFQVKVKAFNNKGDGPYSLVAVINSAQDAPSEAPTEVGVKVLSSSEISVHWKHVLEKIVESYQIRYWAGHDKEAAAHRVQVTSQEYSARLENLLPDTQYFIEVGACNSAGCGPSSDVIETFTRKAPPSQPPRIISSVRSGSRYIITWDHVVALSNESTVTGYKILYRPDGQHDGKLFSTHKHSIEVPIPRDGEYVVEVRAHSDGGDGVVSQVKISGVSTLS
notes: domain: F3 without the GPI-anchor; also called F3 substrate; soluble F3; not shown: human IgG Fc
Question: Does B1 bind [1]?
Answer: Result: binds

Question: And the “MAG mRNA, real-time RT-PCR, primary oligodendrocytes on protein substrate against BSA” value [2]?
Answer: Its value is roughly 8 fold.

Question: What about the “MAG transcripts, real-time PCR, primary OLs on F3 substrate against BSA” value [2] of the same binder?
Answer: The value was roughly 16 fold.

Question: And the “nuclear NICD staining intensity” value [3]?
Answer: The value was 2 fold.

B2: GST-Nogo-66 (other, UniProt Q9NQC3 1055-1120, looked up)
chain: RIYKGVIQAIQKSDEGHPFRAYLESEVAISEELVQKYSNSALGHVNCTIKELRRLFLVDDLVDSLK
notes: also called Nogo-66-GST; recombinant GST-Nogo-66 protein; not shown: glutathione S-transferase (GST) encoded by vector pGEX-KG
Question: Does B2 bind [4]?
Answer: Result: no binding

B3: NB-3-His (ligand, rat)
chain: ESRFTRPIFIQEPQDVIFPLDLSRSEIILSCTASGYPSPHYRWKQNGTDIDFSMTYHYRLDGGSLAISSPRTDQDIGIYQCLATNPVGTILSRKAKLQFAYIEDFETKSRSTVSVREGQGVVLLCGPPPHFGELSYDWTFNDNPLYVQEDKRRFVSQNTGNLYIAKVEPSDVGNYTCFVTNKEAHRSVQGPPTPLVQRTDGVMGEYEPKIEVRFPETIQAAKDSSVKLECFALGNPVPDISWRRLDGSPMPGKVKYSNSQATLEIPKFQQEDEGFYECVAGNLRGRNLAKGQLIFYAPPEWEQKIQNTYLSIYDSLFWECKASGNPNPSYTWLKNGERLNTEERIQTENGTLIITMLNVSDSGIYQCAAENKYQTIYANAELRVLASAPDFSKNPIKKISVVQVGGDISIECKPNAFPKASISWKRGTENLKQSKRVFFLEDGSLKICNVTRSDAGSYTCVATNQFGNGKSSGSLIVKERTVITVPPSKMDVTVGESIVLPCQVSHDPTMEVLFVWYFNGDVIDLKKGVAHFERIGGESVGDLMIRNIQLGHSGKYLCTVQTTLERLSAVADIIVRGPPGPPEDVKVEHISSTTSQLSWRPGPDNNSPIQIFTIQTRTPFSVGWQAVATVPEILNGQTYNATVIGLSPWVEYEFRVVAGNNIGIGEPSKPSELLRTKASIPNVAPVNINGGGGSRSELVITWEPIPEELQNGEGFGYIIMFRPVGSTTWMKEKVALVESSKFIYRNESIMPLSPFEVKVGVYNNEGEGSLSTVSIVYSGEDEPRLAPRGTSVQSFSASDMEVSWNAIAWNRNTGRVLGYEVLYWTDNSKESMIGKIRVSGNVTTKNITGLRANTIYFASVRAYNTAGTGPSSPPVNVTTKKSPPSQPPANIAWKLSNSKLCLNWEHVKTMENESEVLGYKILYRQNRQSKTHVLETNNTSAELLVPFEEDYLIEIRTVSDGGDGSSSEEIRIPKMSSLSSHHHHHH
Question: Which “MAG mRNA, real-time RT-PCR, primary oligodendrocytes on protein substrate against BSA” value [2] does the source give for B3 here?
Answer: Its value is roughly 8 fold.

B4: NB-3 (native, rat brain) (ligand, UniProt P97528 20-999, looked up)
chain: ESRFTRPIFIQEPQDVIFPLDLSRSEIILSCTASGYPSPHYRWKQNGTDIDFSMTYHYRLDGGSLAISSPRTDQDIGIYQCLATNPVGTILSRKAKLQFAYIEDFETKSRSTVSVREGQGVVLLCGPPPHFGELSYDWTFNDNPLYVQEDKRRFVSQNTGNLYIAKVEPSDVGNYTCFVTNKEAHRSVQGPPTPLVQRTDGVMGEYEPKIEVRFPETIQAAKDSSVKLECFALGNPVPDISWRRLDGSPMPGKVKYSNSQATLEIPKFQQEDEGFYECVAGNLRGRNLAKGQLIFYAPPEWEQKIQNTYLSIYDSLFWECKASGNPNPSYTWLKNGERLNTEERIQTENGTLIITMLNVSDSGIYQCAAENKYQTIYANAELRVLASAPDFSKNPIKKISVVQVGGDISIECKPNAFPKASISWKRGTENLKQSKRVFFLEDGSLKICNVTRSDAGSYTCVATNQFGNGKSSGSLIVKERTVITVPPSKMDVTVGESIVLPCQVSHDPTMEVLFVWYFNGDVIDLKKGVAHFERIGGESVGDLMIRNIQLGHSGKYLCTVQTTLERLSAVADIIVRGPPGPPEDVKVEHISSTTSQLSWRPGPDNNSPIQIFTIQTRTPFSVGWQAVATVPEILNGQTYNATVIGLSPWVEYEFRVVAGNNIGIGEPSKPSELLRTKASIPNVAPVNINGGGGSRSELVITWEPIPEELQNGEGFGYIIMFRPVGSTTWMKEKVALVESSKFIYRNESIMPLSPFEVKVGVYNNEGEGSLSTVSIVYSGEDEPRLAPRGTSVQSFSASDMEVSWNAIAWNRNTGRVLGYEVLYWTDNSKESMIGKIRVSGNVTTKNITGLRANTIYFASVRAYNTAGTGPSSPPVNVTTKKSPPSQPPANIAWKLSNSKLCLNWEHVKTMENESEVLGYKILYRQNRQSKTHVLETNNTSAELLVPFEEDYLIEIRTVSDGGDGSSSEEIRIPKMSSLSS
Question: Does B4 bind [5]?
Answer: Result: no binding
